Test results as given in doi:10.1101/2020.06.12.149252.

target: taxol-stabilized microtubules (porcine brain tubulin) (porcine) (UniProt P02550); test: TIRF microscopy
UniProt P02550, sequence (P02550 whole entry): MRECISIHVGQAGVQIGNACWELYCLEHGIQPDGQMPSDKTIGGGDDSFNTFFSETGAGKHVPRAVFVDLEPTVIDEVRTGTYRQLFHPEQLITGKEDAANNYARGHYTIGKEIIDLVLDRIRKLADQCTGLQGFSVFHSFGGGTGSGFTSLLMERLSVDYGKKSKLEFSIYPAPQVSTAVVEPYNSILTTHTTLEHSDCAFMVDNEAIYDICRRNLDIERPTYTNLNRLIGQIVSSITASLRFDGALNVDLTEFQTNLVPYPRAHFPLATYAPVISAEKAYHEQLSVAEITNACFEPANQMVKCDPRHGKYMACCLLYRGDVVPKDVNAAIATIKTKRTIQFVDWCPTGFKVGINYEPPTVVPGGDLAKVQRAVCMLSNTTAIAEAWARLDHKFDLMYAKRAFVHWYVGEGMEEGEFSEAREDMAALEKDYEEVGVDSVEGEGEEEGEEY

| Kd [nM] | microtubule-bound fluorescence intensity at 3 nM | microtubule-bound fluorescence intensity at 12 nM | microtubule-bound fluorescence intensity at 48 nM | Substance | microtubule-bound fluorescence intensity at 25 nM |
| --- | --- | --- | --- | --- | --- |
| 9.4 | – | – | – | sfGFP-DCLK1-T687/688A co-expressed with lambda phosphatase, without ATP (from UniProt O15075 1-740) (natural protein) | – |
| 3.9 | 6790 | 9840 | 14800 | sfGFP-DCLK1-ΔC (aa 1-648) co-expressed with lambda phosphatase, without ATP (from UniProt O15075 1-648) (domain or fragment) | – |
| – | 745 | 2550 | 4530 | sfGFP-DCLK1-ΔC4A co-expressed with lambda phosphatase, without ATP (from UniProt O15075 1-648) (domain or fragment) | – |
| 2.4 | – | – | – | sfGFP-DCLK1-T688A co-expressed with lambda phosphatase, without ATP (from UniProt O15075 1-740) (natural protein) | – |

Continued, substance first:

| Substance | Kd [nM] | microtubule-bound fluorescence intensity at 3 nM | microtubule-bound fluorescence intensity at 12 nM | microtubule-bound fluorescence intensity at 48 nM | microtubule-bound fluorescence intensity at 25 nM |
| --- | --- | --- | --- | --- | --- |
| sfGFP-DCLK1-D511N (kinase dead), expressed in bacteria under standard conditions (from UniProt O15075 1-740) (natural protein) | – | 7140 | – | – | 19600 |
| sfGFP-DCLK1-ΔC (aa 1-648) treated with lambda phosphatase after purification (from UniProt O15075 1-648) (domain or fragment) | – | 11800 | – | – | 21600 |
| sfGFP-DCLK1-WT treated with lambda phosphatase after purification (from UniProt O15075 1-740) (natural protein) | – | 15900 | – | – | 18200 |
| sfGFP-DCLK1-WT co-expressed with lambda phosphatase, without ATP (from UniProt O15075 1-740) (natural protein) | 2.9 | 14900 | 20600 | 15900 | – |
| sfGFP-DCLK1-T687A co-expressed with lambda phosphatase, without ATP (from UniProt O15075 1-740) (natural protein) | 2.4 | – | – | – | – |
| sfGFP-DCLK1-WT, expressed in bacteria under standard conditions (from UniProt O15075 1-740) (natural protein) | – | 2560 | – | – | 16500 |
